Our source for the IC50 and EC50 values is patent US20240116985A1, “STAPLED PEPTIDES AND METHODS THEREOF” (priority 2020, published 2024).

The IC50 is the point on the concentration scale where inhibition reaches its midpoint. The EC50 is the concentration at which the effect is half-maximal.

For experiment [1], the target named is full-length beta-Catenin (Uniprot ID P35222) (Homo sapiens (Human)) (UniProt P35222). The experiment can be described thus: fluorescence polarization competition; peptide titrated against full-length beta-catenin + 5FAM-TCF4(10-53).
Target sequence in this assay (P35222 whole entry, the tested form may be a part): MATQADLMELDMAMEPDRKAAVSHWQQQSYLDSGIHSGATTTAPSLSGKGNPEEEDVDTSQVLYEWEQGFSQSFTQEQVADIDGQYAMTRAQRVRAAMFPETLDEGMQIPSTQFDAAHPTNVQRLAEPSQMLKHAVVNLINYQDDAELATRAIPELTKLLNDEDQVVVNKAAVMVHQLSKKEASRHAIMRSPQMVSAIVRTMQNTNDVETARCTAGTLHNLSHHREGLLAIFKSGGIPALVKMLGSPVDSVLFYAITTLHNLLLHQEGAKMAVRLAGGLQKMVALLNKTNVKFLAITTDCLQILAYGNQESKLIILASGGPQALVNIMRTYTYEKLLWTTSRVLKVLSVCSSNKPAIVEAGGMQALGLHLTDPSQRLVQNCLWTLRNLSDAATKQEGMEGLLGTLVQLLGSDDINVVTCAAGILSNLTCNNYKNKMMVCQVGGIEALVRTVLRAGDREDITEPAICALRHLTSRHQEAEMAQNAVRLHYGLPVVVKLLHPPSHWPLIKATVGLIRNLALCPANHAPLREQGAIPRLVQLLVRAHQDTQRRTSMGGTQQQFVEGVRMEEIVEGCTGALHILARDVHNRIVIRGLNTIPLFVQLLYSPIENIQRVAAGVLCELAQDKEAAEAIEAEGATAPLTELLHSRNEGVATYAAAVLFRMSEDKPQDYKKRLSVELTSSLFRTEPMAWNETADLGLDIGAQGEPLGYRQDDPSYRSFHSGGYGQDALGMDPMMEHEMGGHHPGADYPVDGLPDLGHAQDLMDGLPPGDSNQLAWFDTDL
Experiment [2] shares this target. The experiment can be described thus: fluorescence polarization competition; full-length beta-catenin with 5FAM-labeled TCF4 residues 10-53 probe as competitor. (In general: In fluorescence polarisation assays a small probe gives low polarisation when free and higher when bound to something large.)
Target sequence in this assay (P35222 whole entry, the tested form may be a part): as above
For another experiment, the target named is Bcat-Halo (UniProt P35222). Put plainly: NanoBRET Abs IC50, Bcat-Halo/TCF4-Luc in HEK293 cells. (In general: In BRET a luciferase serves as donor, and the signal depends on an acceptor being close.)
Sequence of Bcat-Halo (P35222 whole entry): as the sequence (P35222 whole entry, the tested form may be a part) above
The target in experiment [3] is full-length beta-Catenin (Uniprot ID P35222) (Homo sapiens (Human)) (UniProt P35222). Put plainly: fluorescence polarization competition; displaces 5FAM-TCF4(10-53) from full-length beta-catenin.
Target sequence in this assay (P35222 2-781 limits assumed): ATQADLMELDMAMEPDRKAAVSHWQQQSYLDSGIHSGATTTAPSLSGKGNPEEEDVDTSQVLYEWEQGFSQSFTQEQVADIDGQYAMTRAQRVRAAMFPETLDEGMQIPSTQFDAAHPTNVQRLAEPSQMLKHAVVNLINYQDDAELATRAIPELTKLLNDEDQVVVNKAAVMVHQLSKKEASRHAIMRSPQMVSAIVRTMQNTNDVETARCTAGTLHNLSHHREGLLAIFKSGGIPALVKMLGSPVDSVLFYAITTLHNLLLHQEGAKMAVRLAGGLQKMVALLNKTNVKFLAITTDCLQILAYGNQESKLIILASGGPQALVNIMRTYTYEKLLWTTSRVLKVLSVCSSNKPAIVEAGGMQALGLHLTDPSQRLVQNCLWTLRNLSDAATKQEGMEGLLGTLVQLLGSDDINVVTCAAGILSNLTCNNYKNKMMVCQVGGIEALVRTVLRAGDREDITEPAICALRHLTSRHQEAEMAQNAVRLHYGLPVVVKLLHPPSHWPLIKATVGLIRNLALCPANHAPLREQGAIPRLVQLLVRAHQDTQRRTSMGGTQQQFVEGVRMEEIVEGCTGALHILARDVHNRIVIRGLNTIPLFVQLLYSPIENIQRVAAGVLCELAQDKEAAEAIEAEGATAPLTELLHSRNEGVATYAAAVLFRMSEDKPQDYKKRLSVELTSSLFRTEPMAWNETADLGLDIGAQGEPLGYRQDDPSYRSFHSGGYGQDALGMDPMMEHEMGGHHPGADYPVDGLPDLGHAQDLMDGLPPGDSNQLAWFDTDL
The target is the same in experiment [4]. The experiment can be described thus: fluorescence polarization competition; 10 nM full-length beta-catenin + 10 nM 5FAM-TCF4(10-53) probe.
Target sequence in this assay (P35222 whole entry, the tested form may be a part): as the sequence (P35222 whole entry, the tested form may be a part) above
Experiment [5] shares this target. The experiment can be described thus: fluorescence polarization competition; full-length beta-catenin; competitor displaced: 5FAM-TCF4 10-53.
Target sequence in this assay (P35222 2-781 limits assumed): as the sequence (P35222 2-781 limits assumed) above
Experiment [6] shares this target. The experiment can be described thus: fluorescence polarization competition; full-length beta-catenin + 5FAM-TCF4(10-53) probe; peptide titrated.
Target sequence in this assay (P35222 2-781 limits assumed): as above
For experiment [7] the target is unchanged. The experiment can be described thus: fluorescence polarization competition; peptide displaces 5FAM-TCF4(10-53) from full-length beta-catenin.
Target sequence in this assay (P35222 2-781 limits assumed): as above
The target is the same in experiment [8]. Put plainly: fluorescence polarization competition: peptide titrated against 10 nM full-length beta-catenin + 10 nM 5FAM-TCF4(10-53) probe.
Target sequence in this assay (P35222 2-781 limits assumed): as above

Starred links: 1 amine or outer side, 2 acyl side, 3 side chain; linkers in the order of their positions; H or OH if unused. Positions of bridges follow the written chain, without caps; N, C: chain ends. Non-standard residues stand in square brackets, D forms with d. Primed or numbered codes have the meaning given here. PyrS2″ = (S)-3-amino-1-((pent-4-en-1-yloxy)carbonyl)pyrrolidine-3-carboxylic acid (stapling residue), C=CCCCOC(=O)N1CC[C@@](N[*:1])(C(=O)[*:2])C1; B5(18) = 2,2-bis(4-pentenyl)glycine (2-amino-2-(pent-4-en-1-yl)hept-6-enoic acid), stitching residue, C=CCCCC(CCCC=C)(N[*:1])C(=O)[*:2]; B5(4) = 2,2-bis(4-pentenyl)glycine = 2-amino-2-(pent-4-en-1-yl)hept-6-enoic acid (stitching residue), C=CCCCC(CCCC=C)(N[*:1])C(=O)[*:2]; B5(5) = 2,2-bis(4-pentenyl)glycine, 2-amino-2-(pent-4-en-1-yl)hept-6-enoic acid (stitching residue), C=CCCCC(CCCC=C)(N[*:1])C(=O)[*:2]; B5(8) = 2,2-bis(4-pentenyl)glycine (2-amino-2-(pent-4-en-1-yl)hept-6-enoic acid, stitching residue), C=CCCCC(CCCC=C)(N[*:1])C(=O)[*:2]; TfeGA = (S)-2-amino-3-((carboxymethyl)(2,2,2-trifluoroethyl)amino)propanoic acid, O=C([C@H](CN(CC(=O)[*:3])CC(F)(F)F)N[*:1])[*:2]; PyrS2 = (S)-3-amino-1-((pent-4-en-1-yloxy)carbonyl)pyrrolidine-3-carboxylic acid, C=CCCCOC(=O)N1CC[C@@](N[*:1])(C(=O)[*:2])C1; B5(3) = 2,2-bis(4-pentenyl)glycine (stitching residue), C=CCCCC(CCCC=C)(N[*:1])C(=O)[*:2]; B5 = 2-amino-2-(pent-4-en-1-yl)hept-6-enoic acid, C=CCCCC(CCCC=C)(N[*:1])C(=O)[*:2]; Trp(5-Cl) = N[C@@H](Cc1c[nH]c2ccc(Cl)cc12)C(=O)O; Bip = N[C@@H](Cc1ccc(-c2ccccc2)cc1)C(=O)O; Dip = N[C@H](C(=O)O)C(c1ccccc1)c1ccccc1; Phe(2-Cl) = N[C@@H](Cc1ccccc1Cl)C(=O)O; 2Nal = N[C@@H](Cc1ccc2ccccc2c1)C(=O)O; Bta = N[C@@H](Cc1csc2ccccc12)C(=O)O; αAllylPro = C=CC[C@@]1(C(=O)O)CCCN1; tBuAla = CC(C)(C)C[C@H](N)C(=O)O; 3Thi = N[C@@H](Cc1ccsc1)C(=O)O; Cha = N[C@@H](CC1CCCCC1)C(=O)O; S8 = C=CCCCCCC[C@](C)(N)C(=O)O; Phg = N[C@H](C(=O)O)c1ccccc1

Ac-[αAllylPro]DL[B5]DEAAFN[S8][3Thi][Bta]-NH2 (staple 1-4, 4-11) [I-716]: in [1], the half-maximal inhibitory concentration (IC50) worked out at 91 nM. The concentration for a half-maximal effect (EC50) in experiment [2] was found to be 91 nM.
With Ac-[αAllylPro]D[tBuAla][B5(3)]DEAAFN[S8]F[Bta]-NH2 (staple 1-4, 4-11) [I-712], the IC50 in [1] was found to be 92 nM. Besides, the concentration giving a half-maximal response (EC50) in experiment [2] stood at 92 nM.
As to Ac-[αAllylPro]D[tBuAla][B5(18)]D[TfeGA]FAFN[PyrS2″][Phe(2-Cl)][Bta]Q-NH2 (staple 1-4, 4-11) [I-1008], the figures for the half-maximal inhibitory concentration (IC50) (with Bcat-Halo; in experiment [4]) were 14000 nM and 9 nM, respectively. In experiment [3], the 50% effective concentration (EC50) is 9 nM.
Take Ac-[αAllylPro]DI[B5(8)]D[TfeGA]AAFN[S8][3Thi][Bta]Q-NH2 (staple 1-4, 4-11) [I-700]: the IC50 in experiment [5] stood at 49 nM. Besides, the half-maximal effective concentration (EC50) in experiment [6] turned out to be 49 nM.
For the molecule Ac-[αAllylPro]DI[B5]DEAA[Phg]Q[S8]F[Bta]Q-NH2 (staple 1-4, 4-11) [I-726], the IC50 in experiment [1] was determined as 5000 nM. The EC50 in [2] amounted to 5000 nM.
For Ac-[αAllylPro]D[tBuAla][B5(18)]D[TfeGA]IAFN[PyrS2″][Phe(2-Cl)][Bta]Q-NH2 (staple 1-4, 4-11) [I-1010], the IC50 was 13300 nM in the experiment with Bcat-Halo and 8 nM in experiment [4]. For the same molecule, the EC50 in experiment [3] worked out at 8 nM.
Ac-[αAllylPro]DI[B5(8)]D[TfeGA]AAFN[S8]F[Bta]Q-NH2 (staple 1-4, 4-11) [I-699]: in experiment [5], the half-maximal inhibitory concentration (IC50) stood at 43 nM. In [6], the half-maximal effective concentration (EC50) stood at 43 nM.
In the case of Ac-[αAllylPro]D[tBuAla][B5(18)]D[TfeGA]KAFN[PyrS2″][Phe(2-Cl)][Bta]Q-NH2 (staple 1-4, 4-11) [I-1011], the 50% inhibitory concentration (IC50) with Bcat-Halo was 20800 nM; in experiment [4], 5 nM. Besides, the concentration for a half-maximal effect (EC50) in [3] is 5 nM.
Turning to Ac-[αAllylPro]DI[B5]DEAA[Dip]Q[S8]F[Bta]Q-NH2 (staple 1-4, 4-11) [I-725], the IC50 in [1] came out at 5000 nM. For the same molecule, the EC50 in experiment [2] worked out at 5000 nM.
Turning to Ac-[αAllylPro]DI[B5]DEAAFN[S8][3Thi][Bta]-NH2 (staple 1-4, 4-11) [I-720], the IC50 in experiment [1] was found to be 75 nM. The molecule further gave an EC50 in [2] of 75 nM.
For Ac-[αAllylPro]DI[B5]DEAAFN[S8][3Thi][Bta]-NH2 (staple 1-4, 4-11) [I-721], the IC50 in [1] worked out at 46 nM. This molecule registered an EC50 in experiment [2] of 46 nM.
In the case of Ac-[αAllylPro]D[tBuAla][B5(18)]DDAAFS[PyrS2″][Phe(2-Cl)][Bta]S-NH2 (staple 1-4, 4-11) [I-1019], the IC50 with Bcat-Halo was 9600 nM. In addition, the concentration for a half-maximal effect (EC50) in experiment [3] came to 5 nM.
As to Ac-[αAllylPro]D[tBuAla][B5(18)]DNAAFT[PyrS2″][Phe(2-Cl)][Bta]S-NH2 (staple 1-4, 4-11) [I-1016], the figures for the IC50 (with Bcat-Halo; in experiment [4]) were 21400 nM and 8 nM, respectively. In experiment [3], the EC50 is 8 nM.
For the molecule Ac-[αAllylPro]DI[B5]DEAA[Cha]Q[S8]F[Bta]Q-NH2 (staple 1-4, 4-11) [I-722], the IC50 in experiment [1] came to 1130 nM. Moreover, in experiment [2], the EC50 was 1130 nM.
Take Ac-[αAllylPro]D[tBuAla][B5(8)]DEAAFN[PyrS2″][3Thi][Bta]H-NH2 (staple 1-4, 4-11) [I-698]: the IC50 in experiment [5] came to 5 nM. In addition, in experiment [6], the EC50 stood at 5 nM.
For the molecule Ac-[αAllylPro]D[tBuAla][B5(18)]DDAAFS[PyrS2″][Phe(2-Cl)][Bta]Q-NH2 (staple 1-4, 4-11) [I-1017], the IC50 in the experiment with Bcat-Halo turned out to be 8900 nM; in [4], 5 nM. In [3], the EC50 was found to be 5 nM.
Consider Ac-[αAllylPro]D[tBuAla][B5(18)]D[TfeGA]ASFN[PyrS2″][Phe(2-Cl)][Bta]Q-NH2 (staple 1-4, 4-11) [I-1004], for which the IC50 amounted to 10600 nM with Bcat-Halo and 5 nM in [4]. Also, in experiment [3], the EC50 amounted to 5 nM.
With Ac-[αAllylPro]DI[B5(3)]DEAAFN[S8]F[Bta]-NH2 (staple 1-4, 4-11) [I-715], in [1], the IC50 amounted to 60.5 nM. For the same molecule, in [2], the EC50 is 60.5 nM.
Ac-[αAllylPro]DI[B5]DEAA[Bip]Q[S8]F[Bta]Q-NH2 (staple 1-4, 4-11) [I-723]: in [1], the half-inhibitory concentration (IC50) amounted to 3830 nM. Further, the EC50 in experiment [2] worked out at 3830 nM.
In the case of Ac-[αAllylPro]DI[B5(8)]D[TfeGA]AAFN[S8][3Thi][Bta]H-NH2 (staple 1-4, 4-11) [I-702], the IC50 in experiment [5] stood at 76 nM. The EC50 in [6] turned out to be 76 nM.
On to Ac-[αAllylPro]D[tBuAla][B5(18)]D[TfeGA]LAFN[PyrS2″][Phe(2-Cl)][Bta]Q-NH2 (staple 1-4, 4-11) [I-1007], for which the results for the IC50 (with Bcat-Halo; in experiment [4]) were 24900 nM and 6 nM, respectively. The molecule further had an EC50 in experiment [3] of 6 nM.
In [7], Ac-[αAllylPro]D[tBuAla][B5(4)]DDAAFN[PyrS2][3Thi][Trp(5-Cl)]H-NH2 (staple 1-4, 4-11) [I-791] registered an IC50 of 310 nM. The half-maximal effective concentration (EC50) in [8] worked out at 310 nM.
Take Ac-[αAllylPro]D[tBuAla][B5]DEAAFN[S8][3Thi][Bta]-NH2 (staple 1-4, 4-11) [I-718]: in experiment [1], the IC50 came out at 82 nM. This molecule had an EC50 in [2] of 82 nM.
As for Ac-[αAllylPro]D[tBuAla][B5(18)]D[TfeGA]ALFN[PyrS2″][Phe(2-Cl)][Bta]Q-NH2 (staple 1-4, 4-11) [I-1002], the figures for the IC50 (with Bcat-Halo; in experiment [4]) were 29800 nM and 9 nM, respectively. In experiment [3], the EC50 was 9 nM.
Ac-[αAllylPro]DL[B5]DEAAFN[S8][3Thi][Bta]-NH2 (staple 1-4, 4-11) [I-717]: in experiment [1], the IC50 was determined as 39 nM. This molecule also gave an EC50 in experiment [2] of 39 nM.
As to Ac-[αAllylPro]D[tBuAla][B5]DEAAFN[S8][3Thi][Bta]-NH2 (staple 1-4, 4-11) [I-719], the IC50 in [1] came out at 38 nM. This molecule also had an EC50 in experiment [2] of 38 nM.
As for Ac-[αAllylPro]D[tBuAla][B5(3)]DEAAFN[S8]F[Bta]-NH2 (staple 1-4, 4-11) [I-713], the IC50 in [1] came to 70 nM. The same molecule displayed an EC50 in experiment [2] of 70 nM.
Molecule Ac-[αAllylPro]D[tBuAla][B5(4)]DDAAFN[PyrS2][3Thi]WH-NH2 (staple 1-4, 4-11) [I-792] displayed an IC50 in experiment [7] of 20 nM. Moreover, in experiment [8], the concentration for a half-maximal effect (EC50) came to 20 nM.
On to Ac-[αAllylPro]D[tBuAla][B5(5)]DDAAFN[PyrS2][3Thi][2Nal]H-NH2 (staple 1-4, 4-11) [I-790], for which the IC50 in experiment [7] was determined as 24 nM. The EC50 in experiment [8] came to 24 nM.
For the molecule Ac-[αAllylPro]D[tBuAla][B5(8)]DDAAFN[PyrS2″][3Thi][Bta]H-NH2 (staple 1-4, 4-11) [I-695], the IC50 in [5] came to 5 nM. For the same molecule, the EC50 in [6] amounted to 5 nM.
Ac-[αAllylPro]D[tBuAla][B5(4)]DDAAFN[PyrS2][Bta][Bta]H-NH2 (staple 1-4, 4-11) [I-793] came in with a half-inhibitory concentration (IC50) in [7] of 14 nM. Also, in [8], the EC50 worked out at 14 nM.
For the molecule Ac-[αAllylPro]DI[B5(3)]DEAAFN[S8]F[Bta]-NH2 (staple 1-4, 4-11) [I-714], the IC50 in [1] was 131 nM. In experiment [2], this molecule registered a concentration giving a half-maximal response (EC50) of 131 nM.
